Assay results taken from article PMC6613885 (Autophagy, 2019).
Ends that are not written are not given here.

T1: biotin-labeled 16-mer PIK3C3 S2E LIR peptide (human, also: biotin label, place not given here)
T1 chain: SEPILTEFELVKVPDP

T2: biotin-labeled 16-mer BECN1 S2E LIR peptide (human, also: biotin label, place not given here)
T2 chain: STEEANEFTLIGEASD

B1: BECN1 89-106 18-mer array peptide, L99F (peptide)
peptide: MSTESANSFTFIGEASDG
notes: BECN1, human, amino acids 89-106; source: synthetic peptide, SPOT synthesis on cellulose membrane
B2: PIK3C3 242-259 18-mer array peptide, F250W (peptide)
peptide: ESSPILTSWELVKVPDPQ
notes: PIK3C3, human, amino acids 242-259; source: synthetic peptide, SPOT synthesis on cellulose membrane
B3: BECN1 89-106 18-mer array peptide, S96C (peptide)
peptide: MSTESANCFTLIGEASDG
notes: as for B1
B4: BECN1 89-106 18-mer array peptide, L99I (peptide)
peptide: MSTESANSFTIIGEASDG
notes: as for B1
B5: PIK3C3 242-259 18-mer array peptide, L252I (peptide)
peptide: ESSPILTSFEIVKVPDPQ
notes: as for B2
B6: PIK3C3 242-259 18-mer array peptide, wild type (peptide)
peptide: ESSPILTSFELVKVPDPQ
notes: PIK3C3, human, amino acids 242-259; also called PIK3C3 LIR; source: synthetic peptide, SPOT synthesis on cellulose membrane
B7: BECN1 89-106 18-mer array peptide, T98I (peptide)
peptide: MSTESANSFILIGEASDG
notes: as for B1
B8: PIK3C3 242-259 18-mer array peptide, E251V (peptide)
peptide: ESSPILTSFVLVKVPDPQ
notes: as for B2
B9: BECN1 89-106 18-mer array peptide, S96G (peptide)
peptide: MSTESANGFTLIGEASDG
notes: as for B1
B10: ATG14 428-445 18-mer array peptide, W435Y (peptide)
peptide: ETDLGTDYENLPSPRFCD
notes: ATG14, human, amino acids 428-445; source: synthetic peptide, SPOT synthesis on cellulose membrane
B11: PIK3C3 242-259 18-mer array peptide, L252F (peptide)
peptide: ESSPILTSFEFVKVPDPQ
notes: as for B2
B12: ATG14 428-445 18-mer array peptide, L438F (peptide)
peptide: ETDLGTDWENFPSPRFCD
notes: as for B10
B13: BECN1 89-106 18-mer array peptide, S96D (peptide)
peptide: MSTESANDFTLIGEASDG
notes: as for B1
B14: BECN1 89-106 18-mer array peptide, S96E (peptide)
peptide: MSTESANEFTLIGEASDG
notes: as for B1
B15: PIK3C3 242-259 18-mer array peptide, L252V (peptide)
peptide: ESSPILTSFEVVKVPDPQ
notes: as for B2
B16: PIK3C3 242-259 18-mer array peptide, E251I (peptide)
peptide: ESSPILTSFILVKVPDPQ
notes: as for B2
B17: ATG14 428-445 18-mer array peptide, E436I (peptide)
peptide: ETDLGTDWINLPSPRFCD
notes: as for B10
B18: ATG14 428-445 18-mer array peptide, D434E (peptide)
peptide: ETDLGTEWENLPSPRFCD
notes: as for B10
B19: BECN1 89-106 18-mer array peptide, T98C (peptide)
peptide: MSTESANSFCLIGEASDG
notes: as for B1
B20: BECN1 89-106 18-mer array peptide, L99W (peptide)
peptide: MSTESANSFTWIGEASDG
notes: as for B1
B21: ATG14 428-445 18-mer array peptide, E436V (peptide)
peptide: ETDLGTDWVNLPSPRFCD
notes: as for B10
B22: BECN1 89-106 18-mer array peptide, S96T (peptide)
peptide: MSTESANTFTLIGEASDG
notes: as for B1
B23: BECN1 89-106 18-mer array peptide, wild type (peptide)
peptide: MSTESANSFTLIGEASDG
notes: BECN1, human, amino acids 89-106; also called BECN1 LIR; source: synthetic peptide, SPOT synthesis on cellulose membrane
B24: BECN1 89-106 18-mer array peptide, T98V (peptide)
peptide: MSTESANSFVLIGEASDG
notes: as for B1
B25: PIK3C3 242-259 18-mer array peptide, E251L (peptide)
peptide: ESSPILTSFLLVKVPDPQ
notes: as for B2
B26: BECN1 89-106 18-mer array peptide, F97W (peptide)
peptide: MSTESANSWTLIGEASDG
notes: as for B1
B27: ATG14 428-445 18-mer array peptide, wild type (peptide)
peptide: ETDLGTDWENLPSPRFCD
notes: ATG14, human, amino acids 428-445; also called ATG14 LIR; source: synthetic peptide, SPOT synthesis on cellulose membrane
B28: PIK3C3 242-259 18-mer array peptide, L252Y (peptide)
peptide: ESSPILTSFEYVKVPDPQ
notes: as for B2
B29: PIK3C3 242-259 18-mer array peptide, L252W (peptide)
peptide: ESSPILTSFEWVKVPDPQ
notes: as for B2
B30: BECN1 89-106 18-mer array peptide, G101P (peptide)
peptide: MSTESANSFTLIPEASDG
notes: as for B1
B31: BECN1 89-106 18-mer array peptide, G101D (peptide)
peptide: MSTESANSFTLIDEASDG
notes: as for B1
B32: ATG14 428-445 18-mer array peptide, W435F (peptide)
peptide: ETDLGTDFENLPSPRFCD
notes: as for B10
B33: PIK3C3 242-259 18-mer array peptide, E251F (peptide)
peptide: ESSPILTSFFLVKVPDPQ
notes: as for B2
B34: BECN1 89-106 18-mer array peptide, S96A (peptide)
peptide: MSTESANAFTLIGEASDG
notes: as for B1
B35: BECN1 89-106 18-mer array peptide, T98E (peptide)
peptide: MSTESANSFELIGEASDG
notes: as for B1
B36: BECN1 89-106 18-mer array peptide, G101E (peptide)
peptide: MSTESANSFTLIEEASDG
notes: as for B1
B37: BECN1 89-106 18-mer array peptide, S96W (peptide)
peptide: MSTESANWFTLIGEASDG
notes: as for B1
B38: BECN1 89-106 18-mer array peptide, I100L (peptide)
peptide: MSTESANSFTLLGEASDG
notes: as for B1
B39: PIK3C3 242-259 18-mer array peptide, V253I (peptide)
peptide: ESSPILTSFELIKVPDPQ
notes: as for B2
B40: recombinant LC3C (biolayer interferometry) (natural protein, UniProt Q9BXW4 1-126, looked up)
chain: MPPPQKIPSVRPFKQRKSLAIRQEEVAGIRAKFPNKIPVVVERYPRETFLPPLDKTKFLVPQELTMTQFLSIIRSRMVLRATEAFYLLVNNKSLVSMSATMAEIYRDYKDEDGFVYMTYASQETFG
notes: LC3C; construct of the BLI experiment not described; source: recombinant
B41: recombinant GABARAP (biolayer interferometry) (natural protein, UniProt O95166 1-117, looked up)
chain: MKFVYKEEHPFEKRRSEGEKIRKKYPDRVPVIVEKAPKARIGDLDKKKYLVPSDLTVGQFYFLIRKRIHLRAEDALFFFVNNVIPPTSATMGQLYQEHHEEDFFLYIAYSDESVYGL
notes: GABARAP; construct of the BLI experiment not described; source: recombinant

Biological target: T3, GST-GABARAPL1 (UniProt Q9H0R8 1-117)
T3 construct: GABARAPL1 (GABA type A receptor associated protein like 1); also called pDest15 (GST)-GABARAPL1; source: E. coli SoluBL21, purified on glutathione-Sepharose 4 Fast Flow beads
Test: peptide or protein array; two-dimensional scan: 18-mer peptides on cellulose membrane, each position replaced with all 20 amino acids; probed with 1 µg/ml GST-GABARAPL1 for 2 h; anti-GST antibody
Details: both partners purified

Binder	binding result
B1	binds
B2	binds
B3	binds
B4	binds
B5	binds
B6	binds
B7	binds
B8	binds
B9	binds
B10	binds
B11	binds
B12	binds
B13	binds
B14	binds
B15	binds
B16	binds
B17	binds
B18	binds
B19	binds
B20	binds

Binder	binding result
B21	binds
B22	binds
B23	binds
B24	binds
B25	binds
B26	binds
B27	binds
B28	binds
B29	binds
B30	binds
B31	binds
B32	binds
B33	binds
B34	binds
B35	binds
B36	binds
B37	binds
B38	binds
B39	binds

Biological target: T1, biotin-labeled 16-mer PIK3C3 S2E LIR …
Test: BLI; biotin-LIR peptides (50 µg/ml) on streptavidin biosensors, Atg8-family protein in solution at different concentrations; Octet Red 96; 25°C; global fit, 1:1 model
Details: both partners purified

Binder	fold increase in binding over the wild-type LIR peptide
B40	15 fold
B41	17 fold

Biological target: B41
Test: as above
Details: both partners purified

Binder	Kd
ETDLGTDWENLPSPRF (also: biotin label, place not given here) [biotin-labeled 16-mer ATG14 LIR peptide]	2.85 µM
STESANSFTLIGEASD (also: biotin label, place not given here) [biotin-labeled 16-mer BECN1 LIR peptide]	10.5 µM
SSPILTSFELVKVPDP (also: biotin label, place not given here) [biotin-labeled 16-mer PIK3C3 LIR peptide]	49.5 µM

Biological target: B40
Test: as above
Details: both partners purified

Binder	Kd
ETDLGTDWENLPSPRF (also: biotin label, place not given here) [biotin-labeled 16-mer ATG14 LIR peptide]	5.85 µM

Biological target: recombinant GABARAPL1 (biolayer interferometry) (UniProt Q9H0R8 1-117)
Sequence (Q9H0R8 whole entry, looked up): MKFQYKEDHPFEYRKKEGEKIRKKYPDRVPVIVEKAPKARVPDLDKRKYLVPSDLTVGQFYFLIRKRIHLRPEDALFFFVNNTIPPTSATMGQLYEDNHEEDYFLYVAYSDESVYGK
Test: as above
Details: both partners purified

Binder	Kd
ETDLGTDWENLPSPRF (also: biotin label, place not given here) [biotin-labeled 16-mer ATG14 LIR peptide]	1.9 µM
STESANSFTLIGEASD (also: biotin label, place not given here) [biotin-labeled 16-mer BECN1 LIR peptide]	7.95 µM
SSPILTSFELVKVPDP (also: biotin label, place not given here) [biotin-labeled 16-mer PIK3C3 LIR peptide]	65 µM

Biological target: T2, biotin-labeled 16-mer BECN1 S2E LIR …
Test: as above
Details: both partners purified

Binder	fold increase in binding affinity over the wild-type LIR peptide
B40	8 fold
B41	3 fold
